Experimental data as given in US20140109263A1.

Legend:
[1] = biological target: receptor proteins in midgut brush border membrane vesicles (BBMV's) from fall armyworm (FAW; Spodoptera frugiperda) larvae (Spodoptera frugiperda); test: heterologous competition: 1,000 nM unlabeled Cry1Da against 125I Cry1Ea on FAW BBMV's, FIG. 4
[2] = biological target: receptor proteins in midgut brush border membrane vesicles (BBMV's) from fall armyworm (FAW; Spodoptera frugiperda) larvae (Spodoptera frugiperda); test: homologous competition: unlabeled Cry1Ea against 125I Cry1Ea on FAW BBMV's, FIG. 3
[3] = biological target: receptor proteins in midgut brush border membrane vesicles (BBMV's) from fall armyworm (FAW; Spodoptera frugiperda) larvae (Spodoptera frugiperda); test: homologous competition: unlabeled Cry1Ea against 0.5 nM 125I Cry1Ea on FAW BBMV's (150 ug/ml), FIG. 1

**Q.** “Cry1Da protein, trypsinized (protease-processed Cry1Da) (from UniProt P19415 28-603)” was tested. Which percent displacement of ^125I Cry1Ea [1] did it give?
**A.** Its percent displacement of ^125I Cry1Ea is 40%.

**Q.** “Cry1Ea protein, trypsin-cleaved activated form (protease-processed Cry1Ea) (from UniProt Q57458 1-612)” was tested. Which IC50 [2] did it give?
**A.** Its IC50 is 1 nM.

**Q.** And the IC50 [3]?
**A.** The IC50 was 1 nM.
